The source of these data is patent US20130005646A1 (Novo Nordisk, published 2013).

Like-named read-outs stand apart in the source and are kept apart here. Starred links: 1 amine or outer side, 2 acyl side, 3 side chain; linkers in the order of their positions; H or OH if unused. Positions of bridges follow the written chain, without caps; N, C: chain ends. Non-standard residues stand in square brackets, D forms with d. *: point of attachment. C20 diacid = O=C(O)CCCCCCCCCCCCCCCCCCC(=O)*; C18 diacid = O=C(O)CCCCCCCCCCCCCCCCC(=O)*; γGlu = O=C(O)[C@H](CCC(=O)[*:2])N[*:1]; Orn = NCCC[C@H](N)C(=O)O; AEEA = NCCOCCOCC(=O)O

Experiment in all cases: cell-based or functional assay
The target in experiment [1] is T1, human amylin 3(a) receptor (human calcitonin receptor co-expressed with RAMP-3) (human) (UniProt P30988).
T1 sequence (looked up) 1: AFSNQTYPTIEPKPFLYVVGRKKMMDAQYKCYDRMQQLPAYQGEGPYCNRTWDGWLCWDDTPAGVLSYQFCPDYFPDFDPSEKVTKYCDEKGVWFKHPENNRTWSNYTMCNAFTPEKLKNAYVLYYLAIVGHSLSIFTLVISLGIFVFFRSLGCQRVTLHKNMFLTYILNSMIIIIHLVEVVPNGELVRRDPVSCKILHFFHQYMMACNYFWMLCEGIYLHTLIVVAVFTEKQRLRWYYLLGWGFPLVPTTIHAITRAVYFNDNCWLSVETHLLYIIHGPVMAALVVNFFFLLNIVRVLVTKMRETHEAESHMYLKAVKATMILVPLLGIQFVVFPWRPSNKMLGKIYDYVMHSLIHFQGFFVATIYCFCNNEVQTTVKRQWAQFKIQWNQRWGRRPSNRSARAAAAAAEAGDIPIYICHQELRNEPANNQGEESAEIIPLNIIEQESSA
T1 sequence (looked up) 2: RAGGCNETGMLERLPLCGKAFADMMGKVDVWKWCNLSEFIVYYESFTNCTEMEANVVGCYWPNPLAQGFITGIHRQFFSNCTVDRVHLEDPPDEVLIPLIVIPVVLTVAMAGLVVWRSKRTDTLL

For experiment [2], the target named is T2, human amylin 3(a) receptor (human calcitonin receptor with RAMP-3) (human) (UniProt P30988).
T2 sequence (looked up) 1: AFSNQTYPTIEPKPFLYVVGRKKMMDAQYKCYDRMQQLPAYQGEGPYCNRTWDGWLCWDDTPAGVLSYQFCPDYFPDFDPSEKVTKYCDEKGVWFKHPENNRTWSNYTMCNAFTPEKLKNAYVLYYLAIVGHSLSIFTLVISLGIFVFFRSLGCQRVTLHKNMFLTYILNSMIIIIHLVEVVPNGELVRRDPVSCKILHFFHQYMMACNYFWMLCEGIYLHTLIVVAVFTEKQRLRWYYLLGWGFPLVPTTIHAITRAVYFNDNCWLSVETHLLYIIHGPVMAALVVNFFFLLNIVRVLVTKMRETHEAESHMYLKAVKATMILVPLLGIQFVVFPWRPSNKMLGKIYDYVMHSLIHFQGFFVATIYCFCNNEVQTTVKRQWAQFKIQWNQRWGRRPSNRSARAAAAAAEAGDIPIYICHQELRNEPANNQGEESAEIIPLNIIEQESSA
T2 sequence (looked up) 2: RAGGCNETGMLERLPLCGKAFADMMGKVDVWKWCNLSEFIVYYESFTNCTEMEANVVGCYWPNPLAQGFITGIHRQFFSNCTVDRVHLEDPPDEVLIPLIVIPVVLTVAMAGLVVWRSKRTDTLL

Experiment [3] concerns the target T3, human amylin 3(a) receptor (human calcitonin receptor + RAMP-3) (human) (UniProt P30988).
T3 sequence (looked up) 1: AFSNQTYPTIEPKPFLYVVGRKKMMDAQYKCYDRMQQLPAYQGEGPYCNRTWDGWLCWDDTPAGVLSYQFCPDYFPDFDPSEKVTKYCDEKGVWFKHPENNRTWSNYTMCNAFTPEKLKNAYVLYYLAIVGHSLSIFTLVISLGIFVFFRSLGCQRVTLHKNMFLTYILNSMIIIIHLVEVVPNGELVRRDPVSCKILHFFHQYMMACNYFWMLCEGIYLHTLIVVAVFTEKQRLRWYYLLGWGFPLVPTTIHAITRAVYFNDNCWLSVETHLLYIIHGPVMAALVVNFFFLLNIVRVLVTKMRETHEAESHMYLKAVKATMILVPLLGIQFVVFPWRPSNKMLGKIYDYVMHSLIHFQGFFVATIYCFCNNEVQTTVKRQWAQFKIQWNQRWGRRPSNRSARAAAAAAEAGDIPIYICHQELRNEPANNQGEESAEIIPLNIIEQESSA
T3 sequence (looked up) 2: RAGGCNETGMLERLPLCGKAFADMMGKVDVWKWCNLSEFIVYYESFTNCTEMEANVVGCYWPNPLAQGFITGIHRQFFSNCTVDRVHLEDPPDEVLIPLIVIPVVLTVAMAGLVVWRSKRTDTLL

The target in experiment [4] is T4, human calcitonin (a) receptor (human) (UniProt P30988).
T4 sequence (looked up): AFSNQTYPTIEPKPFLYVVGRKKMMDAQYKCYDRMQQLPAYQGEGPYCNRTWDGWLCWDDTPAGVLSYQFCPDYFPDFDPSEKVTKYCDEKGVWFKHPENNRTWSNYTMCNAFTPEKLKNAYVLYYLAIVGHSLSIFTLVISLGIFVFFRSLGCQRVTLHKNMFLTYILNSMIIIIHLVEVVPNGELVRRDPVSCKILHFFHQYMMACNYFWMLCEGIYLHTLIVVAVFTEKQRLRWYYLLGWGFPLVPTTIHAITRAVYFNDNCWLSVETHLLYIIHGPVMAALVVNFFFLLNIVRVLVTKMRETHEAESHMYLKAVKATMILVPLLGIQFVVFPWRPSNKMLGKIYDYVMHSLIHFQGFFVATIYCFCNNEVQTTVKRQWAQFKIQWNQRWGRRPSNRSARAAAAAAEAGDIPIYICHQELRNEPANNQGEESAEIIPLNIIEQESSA

Experiment [5] deals with T1, human amylin 3(a) receptor (human calcitonin receptor co-expressed with RAMP-3) (human). This is another data set of the same source.
The target in experiment [6] is T5, human amylin 3(a) receptor (human calcitonin receptor co-expressed with RAMP-3) (human, UniProt P30988 25-474; O60896 24-148).
T5 sequence (looked up) 1: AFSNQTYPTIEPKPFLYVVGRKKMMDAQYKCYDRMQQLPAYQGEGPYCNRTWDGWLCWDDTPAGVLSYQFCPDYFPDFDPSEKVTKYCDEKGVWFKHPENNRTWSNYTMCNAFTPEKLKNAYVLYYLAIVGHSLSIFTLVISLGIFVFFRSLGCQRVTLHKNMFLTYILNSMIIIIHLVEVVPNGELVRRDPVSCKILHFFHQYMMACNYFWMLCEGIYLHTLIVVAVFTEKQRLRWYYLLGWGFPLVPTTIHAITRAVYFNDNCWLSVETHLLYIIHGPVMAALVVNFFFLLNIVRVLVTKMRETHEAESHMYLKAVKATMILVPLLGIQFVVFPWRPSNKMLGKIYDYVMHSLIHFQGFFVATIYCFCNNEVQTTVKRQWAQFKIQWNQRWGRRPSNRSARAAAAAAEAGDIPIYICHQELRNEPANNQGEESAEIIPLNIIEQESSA
T5 sequence (looked up) 2: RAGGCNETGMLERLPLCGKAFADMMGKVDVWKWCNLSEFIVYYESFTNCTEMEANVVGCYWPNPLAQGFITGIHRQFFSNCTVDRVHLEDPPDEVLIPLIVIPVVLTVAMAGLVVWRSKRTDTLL

B1: N-alpha-[(S)-4-Carboxy-4-(19-carboxynonadecanoylamino)butyryl]-Ser-Ser-Gly-Ser-Ser-Gly-[His1,Glu14,His17]-pramlintide (peptide)
peptide: {C20 diacid-γGlu}-SSGSSGHCNTATCATQRLAEFLHHSSNNFGPILPPTNVGSNTY-NH2
modifications: disulfide 8-13
With B1, the Amylin receptor human EC50 (pM) in experiment [1], in experiment [2] and in experiment [5] was 306 pM in each case. For the same molecule, in experiment [3], the Amylin receptor human EC50 came out at 306 pM. Further, the CTa receptor human EC50 in experiment [4] stood at 669 pM. Moreover, the CTa receptor human EC50 (pM) in experiment [4] was determined as 669 pM.

B2: N-alpha-[2-(2-{2-[2-(2-{2-[(S)-4-Carboxy-4-(17-carboxyheptadecanoylamino)butyrylamino]ethoxy}ethoxy)acetylamino]ethoxy}ethoxy)acetyl]-D-Arg-D-Arg-[Orn1,Glu14,Hi … (peptide)
peptide: {C18 diacid-γGlu-AEEA-AEEA}-[dR][dR][Orn]CNTATCATQRLAEFLHRSSNNFGPILPPTNVGSNTY-NH2
modifications: disulfide 4-9 (inferred)
As to B2, the “Amylin receptor human EC50 (pM)” value in experiment [6] stood at 29.5 pM.

B3: N-alpha-[(S)-4-Carboxy-4-(19-carboxynonadecanoylamino)butyryl]-Ser-Ser-Gly-Ser-Ser-[Gly1,Glu14,His17]-pramlintide (peptide)
peptide: {C20 diacid-γGlu}-SSGSSGCNTATCATQRLAEFLHHSSNNFGPILPPTNVGSNTY-NH2
modifications: disulfide 7-12
Regarding B3, the Amylin receptor human EC50 (pM) in experiment [2] worked out at 253 pM. The Amylin receptor human EC50 in experiment [3] is 253 pM. In experiment [4], the CTa receptor human EC50 is 432 pM and the CTa receptor human EC50 (pM) was determined as 432 pM. Besides, the Amylin receptor human EC50 (pM) in experiment [5] was determined as 253 pM.
